Target: T1, recombinant human LAIR1 (leukocyte-associated immunoglobulin-like receptor 1) (human), Q6GTX8
T1 chain: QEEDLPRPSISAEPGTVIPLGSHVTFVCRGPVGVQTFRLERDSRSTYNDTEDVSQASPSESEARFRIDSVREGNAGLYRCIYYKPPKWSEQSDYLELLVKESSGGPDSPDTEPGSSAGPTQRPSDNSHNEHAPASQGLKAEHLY

B1: polymerized type I collagen (protein)
chain 1: not shown
chain 2: GPMGLMGPRGPPGAVGAPGPQGFQGPAGEPGEPGQTGPAGARGPPGPPGKAGEDGHPGKPGRPGERGVVGPQGARGFPGTPGLPGFKGIRGHNGLDGLKGQPGAPGVKGEPGAPGENGTPGQTGARGLPGERGRVGAPGPAGARGNDGSVGPVGPAGPIGSAGPPGFPGAPGPKGELGPVGNPGPAGPAGPRGEVGLPGVSGPVGPPGNPGANGLPGAKGAAGLPGVAGAPGLPGPRGIPGPAGAAGATGARGLVGEPGPAGSKGESGNKGEPGAAGPQGPPGPSGEEGKRGPNGEVGSAGPPGPPGLRGNPGSRGLPGADGRAGVMGPPGSRGPTGPAGVRGPNGDSGRPGEPGLMGPRGFPGSPGNVGPAGKEGPAGLPGIDGRPGPIGPAGARGEPGNIGFPGPKGPTGDPGKNGEKGHAGLAGARGAPGPDGNNGAQGPPGPQGVQGGKGEQGPAGPPGFQGLPGPAGTAGEVGKPGERGIPGEFGLPGPAGPRGERGPPGESGAAGPAGPIGSRGPSGPPGPDGNKGEPGVLGAPGTAGPSGPSGLPGERGAAGIPGGKGEKGETGLRGDVGSPGRDGARGAPGAVGAPGPAGANGDRGEAGPAGPAGPAGPRGSPGERGEVGPAGPNGFAGPAGAAGQPGAKGERGTKGPKGENGPVGPTGPVGAAGPAGPNGPPGPAGSRGDGGPPGATGFPGAAGRIGPPGPSGISGPPGPPGPAGKEGLRGPRGDQGPVGRTGETGASGPPGFAGEKGPSGEPGTAGPPGTPGPQGILGAPGFLGLPGSRGERGLPGVAGSVGEPGPLGIAGPPGARGPPGAVGNPGVNGAPGEAGRDGNPGSDGPPGRDGQAGHKGERGYPGNPGPAGAAGAPGPQGAVGPAGKHGNRGEPGPAGSVGPAGAVGPRGPSGPQGIRGEKGEPGDKGPRGLPGLKGHNGLQGLPGLAGHHGDQGAPGPVGPAGPRGPAGPSGPAGKDGRTGQPGAVGPAGIRGSQGSQGPAGPPGPPGPPGPPGPS
modifications: here or on the partner: covalent bond between the protein and the PVP moiety; γ-irradiated | covalent bond between the protein and the PVP moiety; γ-irradiated
For B1, the percentage of CD14+/CD16+/CD163+/IL-10-expressing cells (M2 phenotype) in M1 cultures without vs. with 10% PTIC, flow cytometry was 19.8% and the percentage of CD16+/CD36+/CD86+/IL-1β-expressing cells (M1 phenotype) in M1 cultures without vs. with 10% PTIC, flow cytometry was 1.5%.
